In the Human Domainome abundance scans (Beltran et al. 2025):
± gives the uncertainty stated by the source.

B1: Triacylglycerol hydrolase DDHD2, residues 389 to 447; numbered along this chain, O94830 (parent)
chain: TLEEDLKKLQLSEFFDIFEKEKVDKEALALCTDRDLQEIGIPLGPRKKILNYFSTRKNS
B2: Probable E3 ubiquitin-protein ligase MID2, residues 191 to 235; numbered along this chain, Q9UJV3 (parent)
chain: RGITCLDHENEKVNMYCVSDDQLICALCKLVGRHRDHQVASLNDR

Variants of: B1
Test: abundance fitness (aPCA) (normalised: wild type 0, dead -1); higher = more abundant; growth selection in yeast, the domain comes from the species named
Conditions: Homo sapiens

Point of comparison: S54L, abundance fitness -0.306 ± 0.069. Against it:
- L2I — higher, -0.017 ± 0.094
- L2F — within error, -0.269 ± 0.091
- L2Y — lower, -0.695 ± 0.13
- V23P — within error, -0.374 ± 0.11
- V23W — higher, 0.593 ± 0.071
- V23E — within error, -0.434 ± 0.091
- V23A — within error, -0.339 ± 0.083
- K25W — within error, -0.329 ± 0.086
- K25P — higher, -0.048 ± 0.11
- K25V — higher, 0.027 ± 0.07
- K25F — higher, -0.078 ± 0.14
- K25I — higher, -0.041 ± 0.14
- K25S — higher, -0.088 ± 0.075
- D33A — higher, -0.107 ± 0.075
- D33W — lower, -0.51 ± 0.1
- D33C — lower, -0.675 ± 0.14
- L43E — higher, 0.725 ± 0.074
- L43M — higher, 0.298 ± 0.076
- L43Q — higher, 0.621 ± 0.081
- L43V — higher, 0.48 ± 0.053
- L43F — higher, 0.313 ± 0.053
- L30P — within error, -0.177 ± 0.092
- L30S — higher, 0.489 ± 0.058
- L30Q — higher, 0.238 ± 0.12

Variants of: B2
Test: as above
Conditions: Homo sapiens

Point of comparison: C5E, abundance fitness -0.307 ± 0.06. Against it:
- I3T — higher, 0.08 ± 0.06
- I3L — higher, -0.167 ± 0.055
- I3V — higher, -0.188 ± 0.055
- I3E — higher, 0.036 ± 0.057
- I3Y — higher, 0.072 ± 0.12
- I3S — higher, -0.081 ± 0.048
- I3G — higher, 0.043 ± 0.042
- I3W — within error, -0.229 ± 0.056
- I3N — higher, 0.162 ± 0.12
- I3D — higher, 0.123 ± 0.1
- I3C — higher, -0.101 ± 0.089
- I3Q — higher, -0.181 ± 0.054
- I3R — higher, -0.079 ± 0.046
- I3H — within error, -0.195 ± 0.26
- I3M — higher, 0.111 ± 0.066
- E9P — higher, 0.173 ± 0.058
- E9F — higher, 0.1 ± 0.16
- E9V — within error, -0.299 ± 0.051
- E9R — higher, -0.024 ± 0.049
- E9L — higher, 0.032 ± 0.051
- E9S — higher, -0.033 ± 0.065
- E9K — higher, 0.073 ± 0.079
- E9C — higher, 0.028 ± 0.07
- E9N — higher, 0.056 ± 0.19
- E9I — within error, -0.128 ± 0.25
- E9M — higher, 0.022 ± 0.062
- E9D — higher, 0.017 ± 0.06
- E9T — higher, 0.151 ± 0.065
- E9Q — higher, 0.021 ± 0.063
- E9A — higher, 0.098 ± 0.046
- R1G — higher, -0.04 ± 0.049
- R1K — within error, -0.211 ± 0.14
- R1Q — higher, 0.069 ± 0.11
- R1W — lower, -0.502 ± 0.073
- R1H — within error, -0.081 ± 0.17
- R1I — within error, -0.17 ± 0.095
- R1S — higher, -0.187 ± 0.059
- R1A — higher, -0.158 ± 0.069
- R1F — higher, 0.127 ± 0.3
- R1E — higher, 0.019 ± 0.097
- R1M — higher, -0.044 ± 0.11
- R1L — within error, -0.194 ± 0.081
- R1N — higher, -0.017 ± 0.15
- R1Y — lower, -0.807 ± 0.38
- R1T — higher, -0.118 ± 0.092
- R1V — within error, -0.195 ± 0.066
- R1D — higher, -0.079 ± 0.072
- G2R — higher, -0.033 ± 0.045
- G2M — higher, -0.081 ± 0.068
- G2T — higher, -0.06 ± 0.086
- G2S — higher, -0.069 ± 0.065
- G2C — lower, -0.511 ± 0.089
- G2P — within error, -0.222 ± 0.089
- G2Y — higher, 0.023 ± 0.12
- G2I — within error, -0.522 ± 0.24
- G2V — within error, -0.216 ± 0.061
- G2W — within error, -0.403 ± 0.057
- G2K — higher, 0.042 ± 0.25
- G2E — higher, 0.115 ± 0.063
- G2D — higher, 0.108 ± 0.085
- G2L — within error, -0.218 ± 0.061
- G2A — higher, -0.135 ± 0.054
- G2Q — within error, -0.181 ± 0.091
- H8Y — lower, -0.831 ± 0.16
- H8G — lower, -0.582 ± 0.048
- H8T — lower, -0.555 ± 0.06
- H8C — within error, -0.408 ± 0.089
- H8D — within error, -0.335 ± 0.1
- H8I — lower, -0.976 ± 0.29
- H8E — lower, -0.47 ± 0.061
- H8L — lower, -0.703 ± 0.062
- H8K — lower, -0.533 ± 0.093
- H8F — lower, -0.808 ± 0.38
- H8W — lower, -0.97 ± 0.069
- H8V — lower, -0.809 ± 0.062
- H8R — lower, -0.655 ± 0.053
- H8M — lower, -0.588 ± 0.088
- D7R — within error, -0.238 ± 0.044
- D7M — within error, -0.239 ± 0.078
- D7G — within error, -0.364 ± 0.046
- D7H — higher, -0.015 ± 0.11
- D7N — higher, -0.107 ± 0.083
- D7A — higher, -0.128 ± 0.051
- D7V — higher, -0.17 ± 0.048
- D7W — within error, -0.294 ± 0.051
- D7L — higher, -0.162 ± 0.066
- D7T — within error, -0.223 ± 0.093
- D7Q — higher, -0.147 ± 0.084
- D7S — higher, -0.173 ± 0.053
- D7P — lower, -0.55 ± 0.07
- D7I — higher, -0.015 ± 0.089
- D7F — within error, -0.082 ± 0.27
- D7C — within error, -0.192 ± 0.071
- D7Y — higher, -0.112 ± 0.098
- C5G — lower, -0.461 ± 0.046
- C5D — within error, -0.39 ± 0.076
- C5M — lower, -0.462 ± 0.081
- C5W — lower, -0.706 ± 0.066
- C5N — lower, -0.487 ± 0.082
- C5H — lower, -0.555 ± 0.1
- C5K — within error, -0.379 ± 0.097
- C5V — lower, -0.589 ± 0.064
- C5P — lower, -0.717 ± 0.099
- C5L — lower, -0.985 ± 0.097
- C5Q — lower, -0.585 ± 0.11
- C5F — lower, -0.951 ± 0.31
- C5S — lower, -0.448 ± 0.062
- L6S — higher, 0.118 ± 0.051
- L6C — higher, 0.069 ± 0.055
- L6F — higher, -0.028 ± 0.07
- L6N — within error, -0.22 ± 0.26
- L6D — higher, 0.124 ± 0.099
- L6T — higher, 0.14 ± 0.057
- L6V — higher, 0.021 ± 0.045
- L6E — higher, 0.151 ± 0.049
- L6Y — higher, 0.064 ± 0.13
- L6K — higher, 0.213 ± 0.072
- L6A — higher, 0.145 ± 0.046
- L6G — higher, 0.039 ± 0.042
- L6M — higher, 0.072 ± 0.071
- L6P — higher, 0.156 ± 0.058
- L6W — within error, -0.253 ± 0.055
- L6R — higher, 0.103 ± 0.042
- L6I — higher, 0.16 ± 0.13
- L6Q — higher, 0.176 ± 0.061
- T4R — within error, -0.205 ± 0.048
- T4I — within error, 0.032 ± 0.37
- T4F — higher, 0.001 ± 0.14
- T4N — higher, -0.01 ± 0.11
- T4D — within error, -0.16 ± 0.1
- T4W — within error, -0.219 ± 0.061
- T4E — within error, -0.209 ± 0.049
- T4H — higher, -0.071 ± 0.077
- T4Y — higher, 0.133 ± 0.12
- T4V — within error, -0.235 ± 0.051
- T4Q — within error, -0.257 ± 0.064
- T4A — within error, -0.238 ± 0.053
- T4C — within error, -0.18 ± 0.092
- T4S — higher, -0.105 ± 0.062
- T4L — within error, -0.376 ± 0.067
- T4G — within error, -0.217 ± 0.045
